# Assay results taken from patent US20240101663A1.
# Key:
# [1] = target: T1, CCDC112 recombinant protein (coiled-coil domain-containing protein 112) (human) (UniProt Q8NEF3); experiment: ELISA, coated CCDC112, LILRB2-hFc, 0 ug/mL CCDC112 antibody; number over the bar
# T1 sequence: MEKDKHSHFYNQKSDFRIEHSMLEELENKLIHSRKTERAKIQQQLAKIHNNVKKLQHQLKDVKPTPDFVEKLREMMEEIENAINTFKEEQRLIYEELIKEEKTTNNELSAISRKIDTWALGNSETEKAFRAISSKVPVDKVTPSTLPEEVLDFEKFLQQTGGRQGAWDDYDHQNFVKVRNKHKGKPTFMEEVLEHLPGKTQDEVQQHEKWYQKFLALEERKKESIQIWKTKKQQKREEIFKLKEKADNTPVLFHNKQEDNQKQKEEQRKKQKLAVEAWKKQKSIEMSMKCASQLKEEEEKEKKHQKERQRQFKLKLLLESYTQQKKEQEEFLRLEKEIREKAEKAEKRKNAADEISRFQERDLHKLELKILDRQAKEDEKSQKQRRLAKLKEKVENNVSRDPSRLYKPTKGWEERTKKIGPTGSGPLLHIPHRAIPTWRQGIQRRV
# [2] = target: CCDC112 on HCT116 tumor cells (including HCT116 cells stably overexpressing CCDC112) (human) (UniProt Q8NEF3); experiment: flow cytometry on HCT116 cells overexpressing CCDC112; ambiguous fit of a flat control curve (see non_binding); table gives no unit, unit from the x axis
# LILRB2-hFc (LILRB2 extracellular region protein fragment labeled with hFc), sequence (Q8N423 22-460): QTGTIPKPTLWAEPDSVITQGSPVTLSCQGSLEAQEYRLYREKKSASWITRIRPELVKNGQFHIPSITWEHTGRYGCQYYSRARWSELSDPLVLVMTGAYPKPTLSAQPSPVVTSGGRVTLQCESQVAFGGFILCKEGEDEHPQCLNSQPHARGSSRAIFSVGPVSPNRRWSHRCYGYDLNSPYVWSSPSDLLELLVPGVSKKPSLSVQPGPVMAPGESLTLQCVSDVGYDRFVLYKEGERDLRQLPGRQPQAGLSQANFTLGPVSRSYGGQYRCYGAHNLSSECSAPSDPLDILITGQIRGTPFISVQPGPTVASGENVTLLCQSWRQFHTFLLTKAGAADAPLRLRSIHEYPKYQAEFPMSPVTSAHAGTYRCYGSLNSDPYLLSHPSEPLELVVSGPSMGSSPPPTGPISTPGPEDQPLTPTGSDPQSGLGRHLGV
OD450 [1],EC50 [2],Substance
1.58 OD450,,LILRB2-hFc (LILRB2 extracellular region protein fragment labeled with hFc) (from UniProt Q8N423 22-460) (Fc fusion)
,0.0449 µM,mIgG1 (antibody)
